Test results: paper PMC9227038, “Characterization of Four Medically Important Toxins from Centruroides huichol Scorpion Venom and Its Neutralization by a Single Recombinant Antibody Fragment” (Toxins, 2022)

Key:
Experiment in all cases: SPR
Settings in all cases: both partners purified
Chui5 toxin [1] = biological target: T1, Chui5 toxin (Centruroides huichol, UniProt C0HM18)
T1 construct: also called FII.12-1

Chui2 toxin [2] = biological target: T2, Chui2 toxin (Centruroides huichol, UniProt C0HM15)
T2 construct: also called FII.9-2
T2 sequence (C0HM15 whole entry): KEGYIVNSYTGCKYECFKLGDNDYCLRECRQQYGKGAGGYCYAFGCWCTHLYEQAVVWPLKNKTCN

Chui3 toxin [3] = biological target: T3, Chui3 toxin (Centruroides huichol, UniProt C0HM16)
T3 construct: also called Chui3/Cn3; FII.9-3
T3 sequence (C0HM16 whole entry): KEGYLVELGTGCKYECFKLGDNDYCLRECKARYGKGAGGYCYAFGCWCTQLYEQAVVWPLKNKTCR

Chui4 toxin [4] = biological target: T4, Chui4 toxin (Centruroides huichol, UniProt C0HM17)
T4 construct: also called FII.10-1
T4 sequence (C0HM17 whole entry): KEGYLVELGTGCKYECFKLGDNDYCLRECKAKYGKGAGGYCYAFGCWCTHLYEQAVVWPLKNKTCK

Chui2 toxin [5] = biological target: T2, Chui2 toxin; remark: listed apart in the source
Chui3 toxin [6] = biological target: T3, Chui3 toxin; remark: listed apart in the source
Chui4 toxin [7] = biological target: T4, Chui4 toxin; remark: listed apart in the source
Chui5 toxin [8] = biological target: T1, Chui5 toxin; remark: listed apart in the source
Chui5 toxin [9] = biological target: T1, Chui5 toxin; remark: listed apart in the source
Chui5 toxin [10] = biological target: T1, Chui5 toxin; remark: listed apart in the source

T1 sequence (C0HM18 whole entry): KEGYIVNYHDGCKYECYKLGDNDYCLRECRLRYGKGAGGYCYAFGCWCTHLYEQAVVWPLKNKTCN

Binder	Kd (Chui2 toxin [5]) [nM]	TR (residence time) (Chui2 toxin [5]) [min]	koff (Chui2 toxin [5]) [s⁻¹]	kon (Chui2 toxin [5]) [M⁻¹ s⁻¹]	Kd (Chui3 toxin [6]) [nM]	TR (residence time) (Chui3 toxin [6]) [min]	koff (Chui3 toxin [6]) [s⁻¹]	kon (Chui3 toxin [6]) [M⁻¹ s⁻¹]	Kd (Chui4 toxin [7]) [nM]	TR (residence time) (Chui4 toxin [7]) [min]	koff (Chui4 toxin [7]) [s⁻¹]	kon (Chui4 toxin [7]) [M⁻¹ s⁻¹]	Kd (Chui5 toxin [8]) [nM]	koff (Chui5 toxin [8]) [s⁻¹]	kon (Chui5 toxin [8]) [M⁻¹ s⁻¹]	dH (Chui5 toxin [9]) [kcal/mol]	further results
scFv LR (scFv, V domains shown) VH: EVQLVESGGGLVQPGGSLRLSCTGSGFTFDNYAMHWLRQVPGEGLEWVSGISRSSGDIDYADSVKGRFTISRDDAKKTLSLQMNSLRAEDTAVYYCARGGFGSFDTWGQGTMVTVSS VL: EIVLTQSPATLSVSPGERATLSCRASQSVRSYLAWYQQKPGQAPRLLFSDASNRATGIPARFTGSGSGTDFTLTISSLEPEDFAIYYCQQYRYSPRTFGQGTKVEIK																	binding result (Chui5 toxin [1]): no binding (tested: 25 nM); binding result (Chui2 toxin [2]): binds; binding result (Chui3 toxin [3]): binds; binding result (Chui4 toxin [4]): binds
scFv 10FG2 (scFv, V domains shown, source: E. coli TG1 (pSyn1), purified (Ni2+-NTA, Superdex 75 SEC)) VH: QVNLRESGGGLVQPGGSLRLSCAASGFSFGSYGMHWVRQAPGKGLEWVAVISYGGGSKYYADSVKGRFTISRDNSKNTLYLQMNSLRAEDTAVYYCAKDARDCLLCSDWTFDLWGRGTLVTVSS VL: NFMLTQPHSASGTPGQRVTISCSGSSSNIGSNTVNWYRHLPGSAPELLIGSHNQRPSGVPDRFSGSKSGTSASLAISGLQSEDEADYYCAAWDDSTLGYVFGTGTKLTVL	1.1	60.4	0.00028	280000	1.8	53.1	0.00031	180000	0.3	242	7e-05	210000					
scFv B15a (scFv, V domains shown, also called B15a variant; source: E. coli TG1 (pSyn1), purified (Ni2+-NTA, Superdex 75 SEC)) VH: QVNLRESGGGLVQPGGSLRLSCAASGFSFGSYGMHWVRQAPGKGLEWVAVISYGGGSKYYADSVQGRFTISRDNSKNTLYLQMNSLRAEDTAVYYCAKDARDCLQCSDWTFDLWGRGTLVTVSS VL: NFMLTQPHSASGTPGQRVTISCSGSSSNIGSNTVNWYRHLPGSAPELLIGSHNQRPSGVPDRFSGSKSGTSASLAISGLQSEDEADYYCAAWDDSTLGYVFGTGTKLTVL													7.3	0.00097	130000	-2.6	
scFv HV (scFv, V domains shown, also called HV variant) VH: QVNLRESGGGLVQPGGSLRLSCAASGFSYGSYGMHWVRQAPGKGLEWVAVISYGGGSKYYADSVQGRFTISRDNSKNTLYLQMNSLRAEDTAVYYCAKDARDCLGCSDWTFDLWGRGTLVTVSS VL: NFMLTQPHSASGTPEQRVTISCSGSSSNIGSNTVNWYRHLPGSAPELLIGSHNQRPSGVPDRFSGSKSGTSASLAISGLQSEDEADYYCAAWDDSTLGYVFGTGTKLTVL	3.1	34.2	0.00049	160000	3.8	48.8	0.00034	90000	0.9	105	0.00016	180000				-1.6	Kd (Chui5 toxin [10]): 6.9 nM; TR (residence time) (Chui5 toxin [10]): 15.5 min; koff (Chui5 toxin [10]): 0.00108 s⁻¹; kon (Chui5 toxin [10]): 160000 M⁻¹ s⁻¹
scFv 9a (scFv, V domains shown, also called variant 9a; clone 9a) VH: QVNLRESGGGLVQPGGSLRLSCAASGFSFGSYGMHWVRQAPGKGLEWVAVISYGGGSKYYADSVKGRFTISRDNSKNTLYLQMNSLRAEDTAVYYCAKDARDCLQCSDWTFDLWGRGTLVTVSS VL: NFMLTQPHSASGTPGQRVTISCSGSSSNIGSNTVNWYRHLPGSAPELLIGSHNQRPSGVPDRFSGSKSGTSASLAISGLQSEDEADYYCAAWDDSTLGYVFGTGTKLTVL													8.2	0.00119	150000		
